Data reported in patent US20260053961A1, “HETERODIMER AND RADIOACTIVE MEDICAL USE THEREOF” (HEXIN (SUZHOU) PHARMACEUTICAL TECHNOLOGY CO., LTD., priority 2022, published 2026).

How the values were obtained:
[1] = PET/CT imaging of ^68Ga complexes in small animals; format: in vivo, NCr nude mice; conditions: NCr nude, mouse, in vivo, iv, 100 uCi, total radioactivity
Description: (§1) BxPC3 human pancreatic cancer cells are suspended in a mixture of 200 μL phosphate buffer and matrix gel (v/v, 1/1), and 2×10^6 cells were implanted subcutaneously into left shoulders of normal NCr nude mice (18-25 g, 4-6 weeks old). After an average of 1.5 weeks, a tumor diameter reached about 10 mm, which was sufficient for biodistribution and single-photon emission computed tomography-computed tomography (SPECT/CT) imaging studies.
(§2) PET-CT and image analysis were performed using a small-animal NovelMedcal PET-CT scanner (Beijing Yongxin). Maximum tangential and radial half-widths of the scanner in a center of field of view were 1.5 mm, and at an edge of the field of view were 1.8 mm.
(§3) About 100 μCi of each of the following complexes: ^68Ga-L00, ^68Ga-L11, ^68Ga-L12, ^68Ga-L13, and ^68Ga-L21, was injected into BxPC3 tumor-bearing mice via tail vein under isoflurane anesthesia, and each of the complexes was injected into four mice. Static PET-CT images were obtained for 15 min 0.5, 1, 2, 3, 4, 5 and 6 hours after intravenous injection. Distribution patterns of the five complexes at each time point were compared.
(§4) PET and CT images were acquired using NMSoft workstation software (Beijing Yongxin), and data were given as a percentage of injected dose per gram of tissue or organ (ID/g), and were determined through decay correction for each sample (standardized to a known weight of the injected dose. Normalization was performed during statistical analysis, and standardized uptake values (SUVs) were calculated according to the following formula: […]

BxPC3 tumor-bearing mice = experiment: PET/CT imaging of ^68Ga complexes in small animals; format: in vivo, NCr nude mice
Description: as §1, §2, §3, §4

[2] = Stability study: in vitro incubation at constant temperature (37° C.) in PBS, LC-MS/MS; format: physicochemical
Description: (§5) The experiment was carried out by using an in vitro incubation method at a constant temperature (37° C.) to study the stability of the compound ([…]) from Example L11 in murine plasma or PBS. The compound obtained from Example L11 was dissolved in 1 mL of mouse serum, respectively, and incubated in vitro at a constant temperature for 0 h, 0.5 h, 1 h, 4 h, 24 h, and 48 h, and a percentage of drug remaining was then measured and determined. PBS was used as a negative control group. Peak areas of the drug and an internal standard were measured using an LC-MS/MS method, and ratios of the peaks were used instead of the drug concentration for calculation.

[3] = Stability study: in vitro incubation at constant temperature (37° C.) in murine plasma, LC-MS/MS; format: in vitro ADME
Description: as §5

Compound: C[C@@H](O)[C@@H]1NC(=O)[C@H](CCCNC(=N)N)NC(=O)CNC(=O)[C@H](CC(N)=O)NC(=O)[C@H](Cc2ccc(O)cc2)NC(=O)[C@H](CCCCNC(=O)CCOCCOCCOCCOCCNC(=O)OCC2C3CCc4nnn(CCC(C(=O)N[C@@H](CCCCNC(=O)CCC(=O)N[C@@H](CCCCNC(=O)CCCc5ccc(C(F)(F)F)cc5)C(=O)O)C(=O)NCCOCCOCCOCCOCCC(=O)NCCCC[C@@H]5NC(=O)[C@@H](Cc6ccccc6)NC(=O)[C@H](CC(=O)O)NC(=O)CNC(=O)[C@H](CCCNC(=N)N)NC5=O)N5CCN(CC(=O)O)CCN(CC(=O)O)CCN(CC(=O)O)CC5)c4CCC32)NC1=O (single isomer, unassigned) [^68Ga-L11, metal not drawn]
- tissue to tissue ratio at 6 h ([1]; about 6 hours after the injection, PET/CT, read-out: tumor-to-kidney ratio): ~1.4
- tumor-to-kidney ratio, rank among the five complexes (BxPC3 tumor-bearing mice; MIP images and ROI regions): highest among the five conjugates
- tumor-to-muscle ratio, rank among the five complexes (BxPC3 tumor-bearing mice; MIP images and ROI regions): highest among the five conjugates

Compound: C[C@@H](O)[C@@H]1NC(=O)[C@H](CCCNC(=N)N)NC(=O)CNC(=O)[C@H](CC(N)=O)NC(=O)[C@H](Cc2ccc(O)cc2)NC(=O)[C@H](CCCCNC(=O)CCOCCOCCOCCOCCNC(=O)OCC2C3CCc4nnn(CCC(C(=O)N[C@@H](CCCCNC(=O)CCC(=O)N[C@@H](CCCCNC(=O)CCCc5ccc(C(F)(F)F)cc5)C(=O)O)C(=O)NCCOCCOCCOCCOCCC(=O)NCCCC[C@@H]5NC(=O)[C@@H](Cc6ccccc6)NC(=O)[C@H](CC(=O)O)NC(=O)CNC(=O)[C@H](CCCNC(=N)N)NC5=O)N5CCN(CC(=O)O)CCN(CC(=O)O)CCN(CC(=O)O)CC5)c4CCC32)NC1=O (single isomer, unassigned) [Example L11, RGD-PEG4-Lys (—R—R1)-DOTA-click-PEG4-NGR]
- Percentage of drug remaining ([2]; 0 h): 100%
- remaining at 0.5 h, 1 g/mL ([2]; 0.5 h, read-out: Percentage of drug remaining): 99.3%
- remaining at 1 h, 1 g/mL ([2]; 1 h, read-out: Percentage of drug remaining): 98.7%
- remaining at 4 h, 1 g/mL ([2]; 4 h, read-out: Percentage of drug remaining): 98.6%
- remaining at 24 h, 1 g/mL ([2]; 24 h, read-out: Percentage of drug remaining): 98.3%
- remaining at 48 h, 1 g/mL ([2]; 48 h, read-out: Percentage of drug remaining): 97.9%
- remaining at 0.5 h, 1 g/mL ([3]; mouse, mouse plasma, murine plasma, 37° C., 0.5 h, read-out: Percentage of drug remaining): 98.5%
- remaining at 1 h, 1 g/mL ([3]; mouse, mouse plasma, murine plasma, 37° C., 1 h, read-out: Percentage of drug remaining): 98.4%
- remaining at 4 h, 1 g/mL ([3]; mouse, mouse plasma, murine plasma, 37° C., 4 h, read-out: Percentage of drug remaining): 98%
- remaining at 24 h, 1 g/mL ([3]; mouse, mouse plasma, murine plasma, 37° C., 24 h, read-out: Percentage of drug remaining): 93.4%
- remaining at 48 h, 1 g/mL ([3]; mouse, mouse plasma, murine plasma, 37° C., 48 h, read-out: Percentage of drug remaining): 86.5%
- Percentage of drug remaining (summary statement) ([3]; murine plasma or PBS, in vitro incubation at constant temperature, over the study): above 95%
- Percentage of drug remaining ([3]; murine plasma, 37° C., 0 h): 100%

Compound: C[C@@H](O)[C@@H]1NC(=O)[C@H](CCCNC(=N)N)NC(=O)CNC(=O)[C@H](CC(N)=O)NC(=O)[C@H](Cc2ccc(O)cc2)NC(=O)[C@H](CCCCNC(=O)CCOCCOCCOCCOCCNC(=O)OCC2C3CCc4nnn(CCC(C(=O)N[C@@H](CCCCNC(=O)CCC(=O)N[C@@H](CCCCN)C(=O)O)C(=O)NCCOCCOCCOCCOCCC(=O)NCCCC[C@@H]5NC(=O)[C@@H](Cc6ccccc6)NC(=O)[C@H](CC(=O)O)NC(=O)CNC(=O)[C@H](CCCNC(=N)N)NC5=O)N5CCN(CC(=O)O)CCN(CC(=O)O)CCN(CC(=O)O)CC5)c4CCC32)NC1=O (stereo partly shown) [^68Ga-L00, metal not drawn]
- tissue to tissue ratio at 2 h [1]: ~0.18
- clearance of the drug (BxPC3 tumor-bearing mice; mouse, in vivo): rapidly metabolized through the kidneys
- signals in the tumor tissue over time (BxPC3 tumor-bearing mice; mouse, in vivo, iv): gradually weakened
